Measured values reported in publication PMC9926490, “Structural Basis for Cyclosporin Isoform-Specific Inhibition of Cyclophilins from Toxoplasma gondii” (ACS Infectious Diseases, 2023).

Assays:
[1] = target: human cyclophilin A (CypA) (human) (UniProt P62937)
cyclosporin A (CsA) = test: ITC
[2] = tested on: C[C@H](NC(=O)CCC(=O)O)C(=O)N[C@@H](C)C(=O)N1CCC[C@H]1C(=O)N[C@@H](Cc1ccccc1)C(=O)Nc1ccc([N+](=O)[O-])cc1; test: purified protein, by the assay type; conditions: other: substrate AAPF, 0 °C, pH 8.0
[3] = tested on: C[C@H](NC(=O)CCC(=O)O)C(=O)N[C@@H](C)C(=O)N1CCC[C@H]1C(=O)N[C@@H](Cc1ccccc1)C(=O)Nc1ccc([N+](=O)[O-])cc1; test: purified protein, by the assay type; type: biochemical, Toxoplasma gondii; conditions: other: substrate AAPF, 0 °C, pH 8.0
Experimental: A trans-isomer is formed by Cyp, which is selectively cleaved by chymotrypsin, producing 4-nitroaniline, a yellow-colored product that can be measured spectrophotometrically.
The assay was performed in 50 mM Hepes, pH 8, and 100 mM NaCl at 0 °C. […] Once the temperature reached 0 °C, chymotrypsin solution, dissolved in HCl 1 mM, was added at 1.8 mg mL^–1 to start the reaction.
Successively, Cyp was added in large excess to enhance the cis-to-trans isomerization. The cis population was estimated by the difference between the final and the initial absorbance.
For all of the experiments, the slope of the catalyzed reaction was corrected for the spontaneous thermal cis–trans isomerization in the presence of the only chymotrypsin.
All measurements were repeated as triplicate, and the error was calculated as the mean standard error of the three measurements. The error associated with the parameter kcat/Km was propagated in agreement with the following equation eq 1 [drawing 1]

Sequence of human cyclophilin A (CypA) (human) (P62937 whole entry): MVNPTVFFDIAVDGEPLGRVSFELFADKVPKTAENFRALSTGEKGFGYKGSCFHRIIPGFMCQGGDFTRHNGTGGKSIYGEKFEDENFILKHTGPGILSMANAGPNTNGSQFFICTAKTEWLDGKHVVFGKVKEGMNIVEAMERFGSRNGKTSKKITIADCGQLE

With cyclosporin A (CsA) (peptide) as the substance, how does the IC50 of CsA on PPIase activity (7 nM enzyme, AAPF substrate, chymotrypsin-coupled assay, 0-30 nM CsA) [1] read?
The IC50 of CsA on PPIase activity (7 nM enzyme, AAPF substrate, chymotrypsin-coupled assay, 0-30 nM CsA) was 1 nM.

Which stoichiometry N (cyclosporin A (CsA)) does the source give for “TgCyp18.4 (TgCyp289250), cyclophilin from Toxoplasma gondii (enzyme)” here?
Its stoichiometry N is 1.

What does the source list for CypA (Homo sapiens)?
Km [2]: 661 ± 93 µM; kcat [2]: 3290 s⁻¹; kcat/Km [2]: 4.9e+06 M⁻¹ s⁻¹

With TgCyp23 (Toxoplasma gondii VEG) as the substance, how does the Km [3] read?
Its Km is 530 ± 97 µM.

What about the kcat [3] of the same substance?
The kcat was 2010 ± 381 s⁻¹.

What about the kcat/Km [3] of the same substance?
The kcat/Km was 3.8e+06 ± 200000 M⁻¹ s⁻¹.

How did the stoichiometry N (cyclosporin A (CsA)) turn out when “TgCyp23 (TgCyp285760), cyclophilin from Toxoplasma gondii (enzyme)” was run?
The stoichiometry N was 1.
